In paper PMC2428106, “Regulation of intestinal hPepT1 (SLC15A1) activity by phosphodiesterase inhibitors is via inhibition of NHE3 (SLC9A3)” (Biochimica et Biophysica Acta, 2007):

Substrate: CN(CC(=O)O)C(=O)CN
Assay: cells, lysate or membranes
Type: cell-based, Homo sapiens

B1: hPepT1 (SLC15A1) (Homo sapiens) (protein)
chain: MGMSKSHSFFGYPLSIFFIVVNEFCERFSYYGMRAILILYFTNFISWDDNLSTAIYHTFVALCYLTPILGALIADSWLGKFKTIVSLSIVYTIGQAVTSVSSINDLTDHNHDGTPDSLPVHVVLSLIGLALIALGTGGIKPCVSAFGGDQFEEGQEKQRNRFFSIFYLAINAGSLLSTIITPMLRVQQCGIHSKQACYPLAFGVPAALMAVALIVFVLGSGMYKKFKPQGNIMGKVAKCIGFAIKNRFRHRSKAFPKREHWLDWAKEKYDERLISQIKMVTRVMFLYIPLPMFWALFDQQGSRWTLQATTMSGKIGALEIQPDQMQTVNAILIVIMVPIFDAVLYPLIAKCGFNFTSLKKMAVGMVLASMAFVVAAIVQVEIDKTLPVFPKGNEVQIKVLNIGNNTMNISLPGEMVTLGPMSQTNAFMTFDVNKLTRINISSPGSPVTAVTDDFKQGQRHTLLVWAPNHYQVVKDGLNQKPEKGENGIRFVNTFNELITITMSGKVYANISSYNASTYQFFPSGIKGFTISSTEIPPQCQPNFNTFYLEFGSAYTYIVQRKNDSCPEVKVFEDISANTVNMALQIPQYFLLTCGEVVFSVTGLEFSYSQAPSNMKSVLQAGWLLTVAVGNIIVLIVAGAGQFSKQWAEYILFAALLLVVCVIFAIMARFYTYINPAEIEAQFDEDEKKNRLEKSNPYFMSGANSQKQM
Km: 1000 ± 200 µM
